Results as given in patent US20220112262A1 (CASE WESTERN RESERVE UNIVERSITY, published 2022).

Target: T1, FLAG epitope-tagged holoreceptor of human type 1 insulin-like growth factor receptor (hIGFR) (human, UniProt P08069 31-1367)
T1 construct: The holoreceptor was captured on 96 well plates coated with anti-FLAG monoclonal antibody; also called IGF-R1; IGF-1R
Test: competitive displacement of 125I-labeled human insulin from plate-captured FLAG-tagged hIGFR

T1 sequence (P08069 31-1367 limits assumed): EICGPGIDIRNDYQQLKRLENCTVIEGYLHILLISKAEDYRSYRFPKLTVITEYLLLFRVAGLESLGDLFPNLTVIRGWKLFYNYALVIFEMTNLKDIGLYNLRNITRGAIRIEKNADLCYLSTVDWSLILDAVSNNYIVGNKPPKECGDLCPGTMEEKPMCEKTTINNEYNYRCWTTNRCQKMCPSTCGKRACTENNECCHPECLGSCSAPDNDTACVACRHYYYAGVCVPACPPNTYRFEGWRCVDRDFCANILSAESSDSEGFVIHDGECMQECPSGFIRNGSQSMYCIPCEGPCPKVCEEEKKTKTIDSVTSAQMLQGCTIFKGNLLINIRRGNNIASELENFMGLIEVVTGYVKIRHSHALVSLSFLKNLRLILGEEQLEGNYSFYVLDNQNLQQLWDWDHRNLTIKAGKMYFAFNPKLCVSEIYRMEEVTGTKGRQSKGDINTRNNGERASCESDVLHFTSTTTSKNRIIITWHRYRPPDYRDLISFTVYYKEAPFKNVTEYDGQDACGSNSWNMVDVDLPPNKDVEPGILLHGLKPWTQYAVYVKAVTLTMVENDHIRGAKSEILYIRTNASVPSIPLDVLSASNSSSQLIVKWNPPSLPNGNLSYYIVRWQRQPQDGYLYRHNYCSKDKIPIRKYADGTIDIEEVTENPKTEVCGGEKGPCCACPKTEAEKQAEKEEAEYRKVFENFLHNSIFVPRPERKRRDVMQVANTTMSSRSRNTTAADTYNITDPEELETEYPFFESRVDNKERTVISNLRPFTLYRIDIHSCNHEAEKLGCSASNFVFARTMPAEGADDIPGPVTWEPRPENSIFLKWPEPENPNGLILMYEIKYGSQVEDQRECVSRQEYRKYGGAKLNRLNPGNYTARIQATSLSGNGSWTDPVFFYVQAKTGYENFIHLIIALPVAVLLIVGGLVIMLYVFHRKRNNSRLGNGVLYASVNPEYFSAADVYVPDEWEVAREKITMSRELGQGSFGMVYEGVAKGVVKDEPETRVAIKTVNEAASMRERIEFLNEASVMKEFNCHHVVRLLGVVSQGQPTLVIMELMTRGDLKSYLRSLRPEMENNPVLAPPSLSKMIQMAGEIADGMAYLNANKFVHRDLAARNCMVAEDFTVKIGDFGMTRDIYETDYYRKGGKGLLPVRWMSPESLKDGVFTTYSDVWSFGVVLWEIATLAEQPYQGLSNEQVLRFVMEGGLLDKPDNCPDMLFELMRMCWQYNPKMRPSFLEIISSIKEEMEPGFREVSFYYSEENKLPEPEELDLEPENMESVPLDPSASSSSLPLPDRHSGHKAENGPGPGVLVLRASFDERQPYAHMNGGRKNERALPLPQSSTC

- Binding Affinity: 0.16
- IGF1-R (Rel. Aff.), relative to insulin lispro: 18%
B1: des-[B1, B2], Glu^B3, His^A8, Glu^A14, Gln^A17, des-B30-insulin (T-0706) (ligand)
chain 1: GIVEQCCHSICSLEQLQNYCN
chain 2: EQHLCGSHLVEALYLVCGERGFFYTPK
modifications: not fully specified
notes: Formulated without zinc; also called HA8 EA14 QA17 des[B1-B2]; EB3 desB30
